Experimental findings from US20250382373A1 (BIOCYTOGEN PHARMACEUTICALS BEIJING, published 2025) are described below.

Broadly, the Kd is the equilibrium constant for the complex coming apart. The koff is a measure of how fast the partners let go of each other. Usually kon stands for the second-order rate constant of association.

The target of experiment [1] is T1, dog MET on dMET-NIH3T3 cells (dog (Canis lupus, printed 'Cans lupus'), UniProt Q75ZY9 25-1382).
T1 construct: also called dMET-NIH13T3 [sic]
The experiment can be described thus: flow cytometry on dMET-NIH3T3 cells. (In general: Flow cytometry measures light scatter and fluorescence of single cells or particles in a stream.)

The target of experiment [2] is T2, His-tagged dog MET (dog, UniProt Q75ZY9 25-933, limits assumed).
T2 construct: Bought protein; also called dMET-His; not shown: His tag
The experiment can be described thus: SPR (Biacore 8K), antibody on Protein A chip. On the technique in general: In SPR one partner is held on a chip, and binding of the other changes the refractive index at the surface.

Experiment [3] has as its target T3, His-tagged human MET protein (human, UniProt P08581 25-932).
T3 construct: Bought protein; also called hMET-His; not shown: His tag
Briefly: SPR (Biacore 8K), antibody on Protein A chip.

Experiment [4] has as its target T4, monkey MET on fasMET-NIH3T3 cells (monkey (Macaca fascicularis)). The experiment can be described thus: flow cytometry on fasMET-NIH3T3 cells.
Experiment [5] deals with human MET on hMET-NIH3T3 cells (human, UniProt P08581 25-1390). Briefly: flow cytometry on hMET-NIH3T3 cells.
Sequence of human MET on hMET-NIH3T3 cells (P08581 25-1390 limits assumed): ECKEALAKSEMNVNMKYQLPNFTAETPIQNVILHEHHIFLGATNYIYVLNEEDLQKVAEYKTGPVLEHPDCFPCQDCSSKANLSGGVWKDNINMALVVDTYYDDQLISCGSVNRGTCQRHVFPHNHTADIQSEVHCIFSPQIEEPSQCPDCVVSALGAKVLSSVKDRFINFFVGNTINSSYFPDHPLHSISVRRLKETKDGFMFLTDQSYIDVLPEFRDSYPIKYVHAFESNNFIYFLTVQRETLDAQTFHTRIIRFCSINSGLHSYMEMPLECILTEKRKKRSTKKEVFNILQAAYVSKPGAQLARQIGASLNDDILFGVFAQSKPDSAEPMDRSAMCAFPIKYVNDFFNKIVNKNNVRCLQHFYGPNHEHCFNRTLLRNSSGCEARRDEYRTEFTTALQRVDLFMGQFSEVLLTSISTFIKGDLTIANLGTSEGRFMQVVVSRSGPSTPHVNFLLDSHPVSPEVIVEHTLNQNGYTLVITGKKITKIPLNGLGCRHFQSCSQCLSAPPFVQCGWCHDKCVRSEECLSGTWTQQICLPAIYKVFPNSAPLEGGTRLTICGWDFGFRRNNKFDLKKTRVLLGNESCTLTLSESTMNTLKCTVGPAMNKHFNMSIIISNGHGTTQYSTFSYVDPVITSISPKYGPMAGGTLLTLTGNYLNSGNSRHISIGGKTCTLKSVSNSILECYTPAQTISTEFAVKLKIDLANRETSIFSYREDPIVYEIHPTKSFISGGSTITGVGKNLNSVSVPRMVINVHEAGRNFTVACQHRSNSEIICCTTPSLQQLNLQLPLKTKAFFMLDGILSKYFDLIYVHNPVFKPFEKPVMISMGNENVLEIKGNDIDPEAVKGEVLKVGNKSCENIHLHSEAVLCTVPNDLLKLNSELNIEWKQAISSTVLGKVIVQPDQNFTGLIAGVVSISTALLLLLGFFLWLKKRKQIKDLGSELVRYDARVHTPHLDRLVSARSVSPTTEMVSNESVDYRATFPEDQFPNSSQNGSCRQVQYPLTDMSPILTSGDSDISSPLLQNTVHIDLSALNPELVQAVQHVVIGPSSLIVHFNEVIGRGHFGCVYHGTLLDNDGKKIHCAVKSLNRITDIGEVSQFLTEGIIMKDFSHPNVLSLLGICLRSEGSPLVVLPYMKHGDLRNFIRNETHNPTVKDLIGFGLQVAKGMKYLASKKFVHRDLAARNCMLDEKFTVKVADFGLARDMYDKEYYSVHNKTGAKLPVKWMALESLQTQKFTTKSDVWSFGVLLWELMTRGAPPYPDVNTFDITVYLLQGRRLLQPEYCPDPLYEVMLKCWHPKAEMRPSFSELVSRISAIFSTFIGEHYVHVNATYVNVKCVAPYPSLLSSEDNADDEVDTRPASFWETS
Experiment [6] concerns the target T3, His-tagged human MET protein. Briefly: SPR (Biacore 8K), antibody on Protein A chip. The source holds these as a separate data set.
Experiment [7] addresses T5, His-tagged monkey EGFR protein (monkey (crab-eating macaque; Macaca …, UniProt A0A2K5WK39 25-645).
T5 construct: also called fasEGFR-His; not shown: His tag
The experiment can be described thus: SPR (Biacore 8K), Protein A chip.

Experiment [8] addresses T3, His-tagged human MET protein. Briefly: SPR (Biacore 8K), Protein A chip.
Experiment [9] addresses T6, His-tagged human EGFR protein (human, UniProt P00533 25-645).
T6 construct: Bought protein; also called hEGFR-His; not shown: His tag
The experiment can be described thus: SPR (Biacore 8K), Protein A chip.

The next experiment concerns the target T7, human MET on SNU-5 cells (human, UniProt P08581 25-1390).
T7 construct: whole, on cells; Endogenous MET of SNU-5 cells
Briefly: flow cytometry on SNU-5 cells.

In experiment [10] the target is T4, monkey MET on fasMET-NIH3T3 cells. The experiment can be described thus: flow cytometry on fasMET-NIH3T3 cells. This is another data set of the same source.
Experiment [11] addresses T2, His-tagged dog MET. The experiment can be described thus: SPR (Biacore 8K), antibody on Protein A chip; legend: - means no binding.
Experiment [12] deals with T1, dog MET on dMET-NIH3T3 cells. Briefly: flow cytometry on dMET-NIH3T3 cells (1.44% positive cells).
For experiment [13], the target named is T4, monkey MET on fasMET-NIH3T3 cells. The experiment can be described thus: flow cytometry on fasMET-NIH3T3 cells (0.18% positive cells).
For experiment [14], the target named is T1, dog MET on dMET-NIH3T3 cells. The experiment can be described thus: flow cytometry on dMET-NIH3T3 cells (5.33% positive cells).
In experiment [15] the target is T2, His-tagged dog MET. Briefly: SPR (Biacore 8K), antibody on Protein A chip. The source holds these as a separate data set.

Read-outs that look alike come from different tables or passages of the source.

T7 sequence (P08581 25-1390): as the sequence (P08581 25-1390 limits assumed) above
T3 sequence (P08581 25-932 limits assumed): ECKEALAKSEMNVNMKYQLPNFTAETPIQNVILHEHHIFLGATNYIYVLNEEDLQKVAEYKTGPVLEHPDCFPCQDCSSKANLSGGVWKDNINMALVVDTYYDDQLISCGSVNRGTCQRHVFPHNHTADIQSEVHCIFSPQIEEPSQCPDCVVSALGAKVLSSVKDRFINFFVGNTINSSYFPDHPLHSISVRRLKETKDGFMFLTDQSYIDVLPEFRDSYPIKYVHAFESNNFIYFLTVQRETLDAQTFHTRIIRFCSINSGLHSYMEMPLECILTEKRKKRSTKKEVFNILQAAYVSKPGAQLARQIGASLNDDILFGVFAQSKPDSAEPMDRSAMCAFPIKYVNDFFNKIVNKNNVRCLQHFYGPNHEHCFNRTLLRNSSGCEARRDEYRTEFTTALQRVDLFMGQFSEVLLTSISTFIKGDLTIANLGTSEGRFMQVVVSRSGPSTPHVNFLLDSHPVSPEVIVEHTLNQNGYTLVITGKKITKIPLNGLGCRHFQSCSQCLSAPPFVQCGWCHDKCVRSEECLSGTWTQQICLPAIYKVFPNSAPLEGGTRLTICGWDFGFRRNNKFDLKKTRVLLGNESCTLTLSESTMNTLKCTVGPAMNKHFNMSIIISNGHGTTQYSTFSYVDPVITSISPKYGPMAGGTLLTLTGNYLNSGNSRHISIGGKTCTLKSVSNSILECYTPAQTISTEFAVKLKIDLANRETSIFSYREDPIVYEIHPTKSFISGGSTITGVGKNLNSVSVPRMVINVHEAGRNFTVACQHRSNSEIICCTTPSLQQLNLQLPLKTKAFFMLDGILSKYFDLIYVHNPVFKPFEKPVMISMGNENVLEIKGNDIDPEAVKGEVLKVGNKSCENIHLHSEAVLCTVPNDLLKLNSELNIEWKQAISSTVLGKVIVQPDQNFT
T4 sequence (chain, as listed by the source limits assumed): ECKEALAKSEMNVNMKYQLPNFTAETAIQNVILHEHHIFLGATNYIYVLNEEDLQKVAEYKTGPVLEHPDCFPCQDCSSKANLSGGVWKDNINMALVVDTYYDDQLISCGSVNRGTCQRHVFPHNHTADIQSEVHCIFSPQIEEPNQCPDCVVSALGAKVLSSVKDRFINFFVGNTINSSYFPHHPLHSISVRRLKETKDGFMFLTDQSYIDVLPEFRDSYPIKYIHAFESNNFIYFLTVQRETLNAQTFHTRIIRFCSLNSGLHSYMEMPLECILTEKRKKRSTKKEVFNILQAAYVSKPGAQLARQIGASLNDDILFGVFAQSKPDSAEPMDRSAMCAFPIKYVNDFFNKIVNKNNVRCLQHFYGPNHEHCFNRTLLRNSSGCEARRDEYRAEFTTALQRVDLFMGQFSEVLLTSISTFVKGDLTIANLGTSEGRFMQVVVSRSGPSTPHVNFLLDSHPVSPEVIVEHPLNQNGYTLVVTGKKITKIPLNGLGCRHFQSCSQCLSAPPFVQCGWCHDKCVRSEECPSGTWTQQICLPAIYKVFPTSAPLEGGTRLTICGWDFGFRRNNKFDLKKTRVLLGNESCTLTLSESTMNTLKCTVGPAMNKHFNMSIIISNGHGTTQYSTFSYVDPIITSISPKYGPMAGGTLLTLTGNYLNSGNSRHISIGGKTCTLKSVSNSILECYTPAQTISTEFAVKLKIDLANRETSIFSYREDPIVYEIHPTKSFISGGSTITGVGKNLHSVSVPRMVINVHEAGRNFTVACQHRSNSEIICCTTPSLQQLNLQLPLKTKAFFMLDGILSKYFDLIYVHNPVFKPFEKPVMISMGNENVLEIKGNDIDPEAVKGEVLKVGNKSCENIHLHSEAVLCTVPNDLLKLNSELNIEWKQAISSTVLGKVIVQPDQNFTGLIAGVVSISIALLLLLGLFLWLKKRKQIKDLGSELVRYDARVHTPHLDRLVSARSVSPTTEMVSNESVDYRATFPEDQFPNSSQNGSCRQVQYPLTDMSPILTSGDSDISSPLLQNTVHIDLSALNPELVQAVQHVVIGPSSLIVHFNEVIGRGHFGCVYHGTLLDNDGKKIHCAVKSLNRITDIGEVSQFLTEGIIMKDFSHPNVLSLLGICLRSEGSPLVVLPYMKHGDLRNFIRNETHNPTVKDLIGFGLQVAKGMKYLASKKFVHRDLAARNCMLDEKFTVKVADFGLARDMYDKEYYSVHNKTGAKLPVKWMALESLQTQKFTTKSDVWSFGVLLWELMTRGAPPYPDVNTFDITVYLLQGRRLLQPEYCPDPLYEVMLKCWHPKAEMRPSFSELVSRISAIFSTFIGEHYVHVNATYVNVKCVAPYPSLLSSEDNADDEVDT

B1: M-6E6 (antibody, V domains shown)
VH: QVQLEQSGPTLVKPTQTLTLTCTFSGFSLSSTGVAMGWIRQPPGKALEWLALIYWDDDKHYSPSLESRLTITKDTFKNQVVLSMTNMDPLDTATYYCTHRRYTGYEDYWGQGILVTVSS
VL: not shown
For B1, the “Percentage of Positive Cells” value in [1] stood at 73.2%; in experiment [4], 49.2%; in experiment [5], 99.2%. For the same molecule, the Kd in the experiment with His-tagged dog MET [2] amounted to 253 nM; in experiment [3], 10.1 nM. The koff was 0.0175 s⁻¹ with His-tagged dog MET [2] and 0.000634 s⁻¹ in [3]. Besides, the results for the kon (in the experiment with His-tagged dog MET [2]; in [3]) were 69000 M⁻¹ s⁻¹ and 62500 M⁻¹ s⁻¹, respectively.

B2: M-2F11 (antibody, V domains shown)
VH: EVQLVESGPGLVKPSETLSLTCTVSGGSISSNYWSWIRQPPGKGLEWIGYIYHSGSTNYNPSLKSRVTISVDTSKNQFSLKLSSVTAADTAVYFCARGPVSIFGVVKYIDLWGRGTLVTVSS
VL: not shown
As for B2, the results for the Kd in experiment [6] and in experiment [8] were 54.2 nM and 55.6 nM, respectively. Also, the koff came out at 0.00313 s⁻¹ in [6] and 0.0022 s⁻¹ in experiment [8]. Also, the values for the kon in experiment [6] and in experiment [8] were 57700 M⁻¹ s⁻¹ and 39600 M⁻¹ s⁻¹, respectively. Also, the binding result in experiment [7] and in experiment [9] was “no binding (tested: antigen up to 400 nM)” throughout. The “Percentage of Positive Cells” value in the experiment with human MET on SNU-5 cells is 97.1%; in experiment [10], 71.1%.

B3: M-8H10 (antibody, V domains shown)
VH: QVQLQQWGAGLLKPSETLSLTCAVYGGSFSGYYWTWIRQPPGKGLEWIGESNHGGSTNFNPSLKSRVTISVDTSKNHFSLKLSPVTAADTAVYYCTRGGTIFGLKDAFDIWGQGTMVTVSS
VL: not shown
For B3, in [3], the Kd is 19.9 nM. Besides, the koff in experiment [3] was found to be 0.00138 s⁻¹. The kon in [3] came out at 69700 M⁻¹ s⁻¹. In addition, the binding result (with His-tagged dog MET [11]; in experiment [12]) was “no binding” throughout. The entries for the “Percentage of Positive Cells” value in experiment [4] and in experiment [5] were 67.8% and 99.8%, respectively.

B4: M-2F12 (antibody, V domains shown)
VH: QVQLVQSGGGVVQPGRSLRLSCAASGFTFNNYGMDWVRQAPGKGLEWVAVIWNDGSKKYYGDFVKGRFTISRDNSKNTLYLEMNSLRAEDTAVYYCARDLEGGQLADAFDVWGQGTMVTVSS
VL: not shown
Consider B4, for which, in experiment [13], the binding result is recorded as “no binding”. Moreover, the “Percentage of Positive Cells” value with human MET on SNU-5 cells was 95.6%.

B5: M-6D12 (antibody, V domains shown)
VH: QVQLQQSGPGLVKPSGTLSLTCAVSGGSISKSNWWTWVRQPPGKGLEWIGEIHHSGSTNYNPSLKSRVTISVEKTKNQFSLKLSSVTAADTAVYYCARGGGYGYDFDYWGQGTLVTVSS
VL: not shown
As to B5, the binding result in [14] was “no binding”. For the same molecule, in experiment [3], the affinity, expressed as Kd, was 60.6 nM; the koff was found to be 0.00237 s⁻¹; the kon was 39100 M⁻¹ s⁻¹. Besides, the binding result in the experiment with His-tagged dog MET [11] is “no binding”. The “Percentage of Positive Cells” value in experiment [4] was 71.4%. Moreover, the “Percentage of Positive Cells” value in [5] was 99.8%.

B6: M-7D3 (antibody, V domains shown)
VH: QVQLVQSGLTLVKPTQTLTLTCTFSGFSLSTTGVSVGWIRQPPGKALEWLALIYWDDDKHYSPSLKSRLTITKDTSKNQVVLTMTNMDPVDTATYYCAPGGYSSGWPGFYDLWGRGTLVTVSS
VL: not shown
Take B6: the “Percentage of Positive Cells” value in experiment [1] was found to be 74.7%; in [4], 63.4%; in [5] it was 99.6%. Further, the Kd with His-tagged dog MET [2] was 62.3 nM; in experiment [3] it was 11.6 nM. For the same molecule, the koff with His-tagged dog MET [2] came out at 0.00343 s⁻¹; in experiment [3], 0.000684 s⁻¹. Also, the kon came to 55000 M⁻¹ s⁻¹ in the experiment with His-tagged dog MET [2] and 59100 M⁻¹ s⁻¹ in experiment [3].

B7: M-1E9 (antibody, V domains shown)
VH: QVQLQQWGAGLLKPSETLSLTCVVFGGSFSGYYWSWIRQPPGKGLEWIGEINHSGSTNYNPSLKSRVTVSVDTSKKQFSLNLRSVTAADTAVYYCARGRGIAAAGTYFDYWGQGNLVTVSS
VL: not shown
In the case of B7, in [6], binding was characterised by a dissociation constant (Kd) of 30.1 nM, the koff was 0.000698 s⁻¹ and the kon is 23200 M⁻¹ s⁻¹. For the same molecule, the “Percentage of Positive Cells” value with human MET on SNU-5 cells worked out at 99.3%. For the same molecule, the “Percentage of Positive Cells” value in experiment [10] was determined as 48.8%.

B8: M-8E2 (antibody, V domains shown)
VH: QVQLVQSGPALVKPTQTLTLTCTFSGFSLYTSGVAVAWIRQPPGKALEWLALIYWDDDKWYTPSLKTRLSITKDTSKNQVVLTMTNMDPVDTATYYCAHRGSFNWNYGYFDYWGQGTLVTVSS
VL: not shown
With B8, the figures for the “Percentage of Positive Cells” value in experiment [1], in experiment [4] and in experiment [5] were 78.8%, 62.2% and 99.6%, respectively. The Kd in the experiment with His-tagged dog MET [2] was 50 nM; in experiment [3], 13.1 nM. Also, the values for the koff (with His-tagged dog MET [2]; in [3]) were 0.00384 s⁻¹ and 0.000683 s⁻¹, respectively. Moreover, the figures for the kon (with His-tagged dog MET [2]; in experiment [3]) were 76900 M⁻¹ s⁻¹ and 52200 M⁻¹ s⁻¹, respectively.

B9: M-2G10 (antibody, V domains shown)
VH: EVQLVESGGGVVQPGRSLRLSCAASGFTFNICGIHWVRQAPGKGLEWVATISHDANDKYYADSVKGRFTISRDNSKNTLYLQMNSLRAEDTAVYYCARDGNRGYDGYFDYWGQGTLVTVSS
VL: not shown
With B9, the Kd came to 31.9 nM in experiment [6] and 63.6 nM in [8]. Also, the koff in experiment [6] turned out to be 0.00605 s⁻¹; in experiment [8], 0.00362 s⁻¹. Besides, the kon in experiment [6] came to 189000 M⁻¹ s⁻¹; in experiment [8] it was 57000 M⁻¹ s⁻¹. Moreover, the binding result in [7] and in [9] was “no binding (tested: antigen up to 400 nM)” throughout. The results for the “Percentage of Positive Cells” value (with human MET on SNU-5 cells; in [10]) were 98.7% and 21%, respectively.

B10: Telisotuzumab analog (antibody, human IgG1, kappa, V domains shown)
VH: QVQLVQSGAEVKKPGASVKVSCKASGYIFTAYTMHWVRQAPGQGLEWMGWIKPNNGLANYAQKFQGRVTMTRDTSISTAYMELSRLRSDDTAVYYCARSEITTEFDYWGQGTLVTVSS
VL: DIVMTQSPDSLAVSLGERATINCKSSESVDSYANSFLHWYQQKPGQPPKLLIYRASTRESGVPDRFSGSGSGTDFTLTISSLQAEDVAVYYCQQSKEDPLTFGGGTKVEIKR
notes: Humanized IgG1 against MET
For the molecule B10, the binding result with His-tagged dog MET [15] is on record as “no binding”; in experiment [7], “no binding (tested: antigen up to 400 nM)”; in experiment [9], “no binding (tested: antigen up to 400 nM)”. The Kd in experiment [8] worked out at 0.972 nM. The same molecule came in with a koff in experiment [8] of 0.0001 s⁻¹. The molecule also showed a kon in [8] of 103000 M⁻¹ s⁻¹.
